From publication PMC6987202, “Exploring the therapeutic potential of modern and ancestral phenylalanine/tyrosine ammonia-lyases as supplementary treatment of hereditary tyrosinemia” (Scientific Reports, 2020) come the findings set out here.

As usually defined, the stoichiometry N is a count of units in the complex or per binding partner. The kcat is the maximal rate divided by the concentration of active sites. Broadly, the kcat/Km is the second-order rate constant that governs catalysis at low substrate concentration.

For series [1], the target named is PAL/TAL from Rhodotorula glutinis (RgPAL) (Rhodotorula glutinis). Briefly: SEC-MALS; analytical SEC on Superdex200 Increase 10/300 GL in filtered PBS pH 7.4, 50 ul of ca. 1-2 mg/ml enzyme, 0.75 ml/min, miniDAWN MALS detector; self-association (tetramer and larger oligomers). In general terms: Size exclusion chromatography separates by hydrodynamic size, large species first.

The target of series [2] is PAL/TAL from Trichosporon cutaneum (TcPAL) (Trichosporon cutaneum). The description is as above.
The subject of series [3] is T1, MEGA_A1.
T1 construct: N-terminal 6xHis tag, E. coli BL21(DE3); tetramer
Kind of series: trans-cinnamic acid formation at […] nm, Michaelis-Menten fit. The settings on record: 50 mM Tris-HCl, pH 9.2, 37 °C; read-out: L-Phe^a / KM^c. Format: biochemical, synthetic construct.

Series [4] relates to T2, PAML_A1.
T2 construct: N-terminal 6xHis tag, E. coli BL21(DE3); tetramer
The series is described as above. Format: biochemical, synthetic construct. The settings on record: 50 mM Tris-HCl, pH 9.2, 37 °C; read-out: L-Phe^a / KM^c.

Series [5] has as its system T3, MEGA_A3.
T3 construct: N-terminal 6xHis tag, E. coli BL21(DE3); tetramer
The description is as above. The settings on record: 50 mM Tris-HCl, pH 9.2, 37 °C; read-out: L-Phe^a / KM^c. Format: biochemical, synthetic construct.

In a further series the test system is T4, PAML_A2.
T4 construct: N-terminal 6xHis tag, E. coli BL21(DE3); tetramer
Described as above. Format: biochemical, synthetic construct. The settings on record: 50 mM Tris-HCl, pH 9.2, 37 °C; read-out: L-Phe^a / KM^c.

For series [6], the system named is T1, MEGA_A1. Briefly: p-coumaric acid formation at […] nm, Michaelis-Menten fit. Type of series: biochemical, synthetic construct. The settings on record: 50 mM Tris-HCl, pH 9.2, 37 °C; read-out: L-Tyr^a / KM^c.
The test system of series [7] is T2, PAML_A1. Described as above. Type of series: biochemical, synthetic construct. The conditions noted are these: 50 mM Tris-HCl, pH 9.2, 37 °C; read-out: L-Tyr^a / KM^c.
Series [8] has as its system T3, MEGA_A3. The series is described as above. Format: biochemical, synthetic construct. The settings on record: 50 mM Tris-HCl, pH 9.2, 37 °C; read-out: L-Tyr^a / KM^c.
Substrate in series [9]: N[C@@H](Cc1ccc(O)cc1)C(=O)O
Kind of series: purified protein. Format: biochemical, Rhodotorula glutinis. The conditions noted are these: 50 mM Tris-HCl, pH 9.2, 37 °C.

Substrate in series [10]: N[C@@H](Cc1ccccc1)C(=O)O
Briefly: purified protein. Format: biochemical, Rhodotorula glutinis. The conditions noted are these: 50 mM Tris-HCl, pH 9.2, 37 °C.

The molecule “PAL/TAL from Rhodotorula glutinis (RgPAL) (enzyme)” returned a stoichiometry N in series [1] of 4.

The molecule “PAL/TAL from Trichosporon cutaneum (TcPAL) (enzyme)” displayed a stoichiometry N in series [2] of 4.

Take `N[C@@H](Cc1ccccc1)C(=O)O` [L-phenylalanine]: the Km with MEGA_A1 [3] turned out to be 3830 ± 970 µM; in the series with PAML_A1 [4] it was 4480 ± 620 µM; in the series with MEGA_A3 [5], 350 ± 30 µM; in the series on PAML_A2, 690 ± 150 µM.

On to `N[C@@H](Cc1ccc(O)cc1)C(=O)O` [L-tyrosine], for which the Km worked out at 400 ± 20 µM in the series with MEGA_A1 [6], 2690 ± 10 µM in the series with PAML_A1 [7] and 50 ± 10 µM with MEGA_A3 [8].

B1: RgPAL (Rhodotorula glutinis) (protein)
chain: MAPSVDSIATSVANSLSNGLHAAAAANGGDVHKKTAGAGSLLPTTETTQLDIVERILADAGATDQIKLDGYTLTLGDVVGAARRGRSVKVADSPHIREKIDASVEFLRTQLDNSVYGVTTGFGGSADTRTEDAISLQKALLEHQLCGVLPTSMDGFALGRGLENSLPLEVVRGAMTIRVNSLTRGHSAVRIVVLEALTNFLNHGITPIVPLRGTISASGDLSPLSYIAASITGHPDSKVHVDGKIMSAQEAIALKGLQPVVLGPKEGLGLVNGTAVSASMATLALTDAHVLSLLAQALTALTVEAMVGHAGSFHPFLHDVTRPHPTQIEVARNIRTLLEGSKYAVHHETEVKVKDDEGILRQDRYPLRCSPQWLGPLVSDMIHAHAVLSLEAGQSTTDNPLIDLENKMTHHGGAFMASSVGNTMEKTRLAVALMGKVSFTQLTEMLNAGMNRALPSCLAAEDPSLSYHCKGLDIAAAAYTSELGHLANPVSTHVQPAEMGNQAINSLALISARRTAEANDVLSLLLATHLYCVLQAVDLRAMEFEHTKAFEPMVTELLKQHFGALATAEVEDKVRKSIYKRLQQNNSYDLEQRWHDTFSVATGAVVEALAGQEVSLASLNAWKVACAEKAIALTRSVRDSFWAAPSSSSPALKYLSPRTRVLYSFVREEVGVKARRGDVYLGKQEVTIGTNVSRIYEAIKSGRIAPVLVKMMA
notes: full-length codon-optimized gene, N-terminal 6xHis tag, pET22b(+), E. coli BL21(DE3); homotetramer; MIO cofactor from Ala-Ser-Gly
Consider B1, for which, in the series “purified protein [9]”, the Km was determined as 280 ± 10 µM, the catalytic constant (kcat) turned out to be 1.71 ± 0.11 s⁻¹ and the kcat/Km worked out at 6300 ± 288 M⁻¹ s⁻¹. In the series “purified protein [10]”, the Km was determined as 1350 ± 100 µM, the kcat was determined as 8.95 ± 0.37 s⁻¹ and the kcat/Km was determined as 6660 ± 259 M⁻¹ s⁻¹.
